The source of these data is patent US20190352359A1.

The target of this assay is HLA-A*24. The assay is described as follows: UV peptide-exchange ELISA (anti-b2m); yield grade ++ = >20%. On the technique in general: ELISA stands for enzyme-linked immunosorbent assay.

In turn, TQFFIPYTI (modifications not checked) [COL10-002] yielded a peptide exchange yield of 20 to 50%.
